Source: patent publication US20260176319A1 (KALLYOPE, published 2026)
Starred links: 1 amine or outer side, 2 acyl side, 3 side chain; linkers in the order of their positions; H or OH if unused. Non-standard residues stand in square brackets, D forms with d. Primed or numbered codes have the meaning given here. *: point of attachment. Trp(7-Me) = Cc1cccc2c(C[C@H](N)C(=O)O)c[nH]c12; C20 diacid = O=C(O)CCCCCCCCCCCCCCCCCCC(=O)*; d(γGlu) = O=C(O)[C@@H](CCC(=O)[*:2])N[*:1]; C18 diacid = O=C(O)CCCCCCCCCCCCCCCCC(=O)*; γGlu = O=C(O)[C@H](CCC(=O)[*:2])N[*:1]; NMeH = CN[C@@H](Cc1c[nH]cn1)C(=O)O; Palmitoyl = CCCCCCCCCCCCCCCC(=O)*; 3Pal = N[C@@H](Cc1cccnc1)C(=O)O; Met(O) = CS(=O)CC[C@H](N)C(=O)O; Nle = CCCC[C@H](N)C(=O)O; PEG5′ = not defined here; AEEA = NCCOCCOCC(=O)O; Aib = CC(C)(N)C(=O)O; βAla = NCCC(=O)O; Sar = CNCC(=O)O

Target: human GRP receptor (human, UniProt P30550 1-384)
Experiment: cell-based or functional assay

Chain of human GRP receptor (P30550 whole entry): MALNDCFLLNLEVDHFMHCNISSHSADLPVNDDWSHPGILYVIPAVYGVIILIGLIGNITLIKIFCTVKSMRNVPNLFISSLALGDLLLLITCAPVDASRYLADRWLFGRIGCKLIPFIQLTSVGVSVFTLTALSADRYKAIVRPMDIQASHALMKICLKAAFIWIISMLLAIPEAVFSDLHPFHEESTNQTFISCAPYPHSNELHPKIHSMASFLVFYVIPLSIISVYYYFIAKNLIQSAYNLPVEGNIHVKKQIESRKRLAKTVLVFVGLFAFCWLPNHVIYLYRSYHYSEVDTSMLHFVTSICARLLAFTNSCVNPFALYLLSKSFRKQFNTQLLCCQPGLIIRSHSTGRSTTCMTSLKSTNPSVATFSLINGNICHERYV

Row | Binder | hIP1 GRPR EC50
1 | Palmitoyl-[d(γGlu)][AEEA][AEEA]GNH[Trp(7-Me)]AV[Aib]HL[Nle]-NH2 (SMILES CCCCCCCCCCCCCCCC(=O)N[C@H](CCC(=O)NCCOCCOCC(=O)NCCOCCOCC(=O)NCC(=O)N[C@@H](CC(N)=O)C(=O)N[C@@H](Cc1c[nH]cn1)C(=O)N[C@@H](Cc1c[nH]c2c(C)cccc12)C(=O)N[C@@H](C)C(=O)N[C@H](C(=O)NC(C)(C)C(=O)N[C@@H](Cc1c[nH]cn1)C(=O)N[C@@H](CC(C)C)C(=O)N[C@@H](CCCC)C(N)=O)C(C)C)C(=O)O) [Peptide 22] | 10.3 nM
2 | Palmitoyl-[d(γGlu)]GNHWAV[dA]HL[Nle]-NH2 (SMILES CCCCCCCCCCCCCCCC(=O)N[C@H](CCC(=O)NCC(=O)N[C@@H](CC(N)=O)C(=O)N[C@@H](Cc1c[nH]cn1)C(=O)N[C@@H](Cc1c[nH]c2ccccc12)C(=O)N[C@@H](C)C(=O)N[C@H](C(=O)N[C@H](C)C(=O)N[C@@H](Cc1c[nH]cn1)C(=O)N[C@@H](CC(C)C)C(=O)N[C@@H](CCCC)C(N)=O)C(C)C)C(=O)O) [Peptide 26] | 1.8 nM
3 | Palmitoyl-[d(γGlu)][AEEA][AEEA]GEHWAV[Aib]HL[Nle]-NH2 (SMILES CCCCCCCCCCCCCCCC(=O)N[C@H](CCC(=O)NCCOCCOCC(=O)NCCOCCOCC(=O)NCC(=O)N[C@@H](CCC(=O)O)C(=O)N[C@@H](Cc1c[nH]cn1)C(=O)N[C@@H](Cc1c[nH]c2ccccc12)C(=O)N[C@@H](C)C(=O)N[C@H](C(=O)NC(C)(C)C(=O)N[C@@H](Cc1c[nH]cn1)C(=O)N[C@@H](CC(C)C)C(=O)N[C@@H](CCCC)C(N)=O)C(C)C)C(=O)O) [Peptide 24] | 183 nM
4 | {C20 diacid}-[γGlu][AEEA][AEEA]GQHWAV[βAla]HL[Met(O)]-NH2 (SMILES CC(C)C[C@H](NC(=O)[C@H](Cc1c[nH]cn1)NC(=O)CCNC(=O)[C@@H](NC(=O)[C@H](C)NC(=O)[C@H](Cc1c[nH]c2ccccc12)NC(=O)[C@H](Cc1c[nH]cn1)NC(=O)[C@H](CCC(N)=O)NC(=O)CNC(=O)COCCOCCNC(=O)COCCOCCNC(=O)CC[C@H](NC(=O)CCCCCCCCCCCCCCCCCCC(=O)O)C(=O)O)C(C)C)C(=O)N[C@@H](CCS(C)=O)C(N)=O) [Peptide 276] | 63.8 nM
5 | {C18 diacid}-[d(γGlu)][AEEA][AEEA]GNHWAV[dA]HL[Nle][Sar]-NH2 (SMILES CCCC[C@H](NC(=O)[C@H](CC(C)C)NC(=O)[C@H](Cc1c[nH]cn1)NC(=O)[C@@H](C)NC(=O)[C@@H](NC(=O)[C@H](C)NC(=O)[C@H](Cc1c[nH]c2ccccc12)NC(=O)[C@H](Cc1c[nH]cn1)NC(=O)[C@H](CC(N)=O)NC(=O)CNC(=O)COCCOCCNC(=O)COCCOCCNC(=O)CC[C@@H](NC(=O)CCCCCCCCCCCCCCCCC(=O)O)C(=O)O)C(C)C)C(=O)N(C)CC(N)=O) [Peptide 47] | 216 nM
6 | Palmitoyl-[d(γGlu)][AEEA][AEEA]GE[3Pal][Trp(7-Me)][Aib]V[dA][3Pal]L[Nle][Sar]-NH2 (SMILES CCCCCCCCCCCCCCCC(=O)N[C@H](CCC(=O)NCCOCCOCC(=O)NCCOCCOCC(=O)NCC(=O)N[C@@H](CCC(=O)O)C(=O)N[C@@H](Cc1cccnc1)C(=O)N[C@@H](Cc1c[nH]c2c(C)cccc12)C(=O)NC(C)(C)C(=O)N[C@H](C(=O)N[C@H](C)C(=O)N[C@@H](Cc1cccnc1)C(=O)N[C@@H](CC(C)C)C(=O)N[C@@H](CCCC)C(=O)N(C)CC(N)=O)C(C)C)C(=O)O) [Peptide 18] | ~1000 nM
7 | Palmitoyl-[d(γGlu)][AEEA][AEEA]GNHWAV[Aib][3Pal]L[Nle]-NH2 (SMILES CCCCCCCCCCCCCCCC(=O)N[C@H](CCC(=O)NCCOCCOCC(=O)NCCOCCOCC(=O)NCC(=O)N[C@@H](CC(N)=O)C(=O)N[C@@H](Cc1c[nH]cn1)C(=O)N[C@@H](Cc1c[nH]c2ccccc12)C(=O)N[C@@H](C)C(=O)N[C@H](C(=O)NC(C)(C)C(=O)N[C@@H](Cc1cccnc1)C(=O)N[C@@H](CC(C)C)C(=O)N[C@@H](CCCC)C(N)=O)C(C)C)C(=O)O) [Peptide 2] | 822 nM
8 | {C20 diacid}-[γGlu][γGlu][PEG5′]GEH[Trp(7-Me)]AV[BABA]HL[Nle]-NH2 [Peptide 275] | 12.3 nM
9 | Palmitoyl-[d(γGlu)][AEEA][AEEA]GNHWAV[Aib]HL[Nle]-NH2 (SMILES CCCCCCCCCCCCCCCC(=O)N[C@H](CCC(=O)NCCOCCOCC(=O)NCCOCCOCC(=O)NCC(=O)N[C@@H](CC(N)=O)C(=O)N[C@@H](Cc1c[nH]cn1)C(=O)N[C@@H](Cc1c[nH]c2ccccc12)C(=O)N[C@@H](C)C(=O)N[C@H](C(=O)NC(C)(C)C(=O)N[C@@H](Cc1c[nH]cn1)C(=O)N[C@@H](CC(C)C)C(=O)N[C@@H](CCCC)C(N)=O)C(C)C)C(=O)O) [Peptide 1] | 6.9 nM
10 | Palmitoyl-[d(γGlu)][AEEA][AEEA]GEH[Trp(7-Me)][Aib]V[dA][3Pal]L[Nle][Sar]-NH2 (SMILES CCCCCCCCCCCCCCCC(=O)N[C@H](CCC(=O)NCCOCCOCC(=O)NCCOCCOCC(=O)NCC(=O)N[C@@H](CCC(=O)O)C(=O)N[C@@H](Cc1c[nH]cn1)C(=O)N[C@@H](Cc1c[nH]c2c(C)cccc12)C(=O)NC(C)(C)C(=O)N[C@H](C(=O)N[C@H](C)C(=O)N[C@@H](Cc1cccnc1)C(=O)N[C@@H](CC(C)C)C(=O)N[C@@H](CCCC)C(=O)N(C)CC(N)=O)C(C)C)C(=O)O) [Peptide 19] | > 1000 nM
11 | Palmitoyl-[d(γGlu)][AEEA][AEEA]GNHWAV[dA]HL[Nle][Sar]-NH2 (SMILES CCCCCCCCCCCCCCCC(=O)N[C@H](CCC(=O)NCCOCCOCC(=O)NCCOCCOCC(=O)NCC(=O)N[C@@H](CC(N)=O)C(=O)N[C@@H](Cc1c[nH]cn1)C(=O)N[C@@H](Cc1c[nH]c2ccccc12)C(=O)N[C@@H](C)C(=O)N[C@H](C(=O)N[C@H](C)C(=O)N[C@@H](Cc1c[nH]cn1)C(=O)N[C@@H](CC(C)C)C(=O)N[C@@H](CCCC)C(=O)N(C)CC(N)=O)C(C)C)C(=O)O) [Peptide 48] | 1.1 nM
12 | Palmitoyl-[d(γGlu)][AEEA][AEEA]GNH[Trp(7-Me)][Aib]V[dA][3Pal]L[Nle][Sar]-NH2 (SMILES CCCCCCCCCCCCCCCC(=O)N[C@H](CCC(=O)NCCOCCOCC(=O)NCCOCCOCC(=O)NCC(=O)N[C@@H](CC(N)=O)C(=O)N[C@@H](Cc1c[nH]cn1)C(=O)N[C@@H](Cc1c[nH]c2c(C)cccc12)C(=O)NC(C)(C)C(=O)N[C@H](C(=O)N[C@H](C)C(=O)N[C@@H](Cc1cccnc1)C(=O)N[C@@H](CC(C)C)C(=O)N[C@@H](CCCC)C(=O)N(C)CC(N)=O)C(C)C)C(=O)O) [Peptide 20] | > 1000 nM
13 | Palmitoyl-[d(γGlu)][AEEA][AEEA]GNH[Trp(7-Me)]AV[Aib][3Pal]L[Nle][Sar]-NH2 (SMILES CCCCCCCCCCCCCCCC(=O)N[C@H](CCC(=O)NCCOCCOCC(=O)NCCOCCOCC(=O)NCC(=O)N[C@@H](CC(N)=O)C(=O)N[C@@H](Cc1c[nH]cn1)C(=O)N[C@@H](Cc1c[nH]c2c(C)cccc12)C(=O)N[C@@H](C)C(=O)N[C@H](C(=O)NC(C)(C)C(=O)N[C@@H](Cc1cccnc1)C(=O)N[C@@H](CC(C)C)C(=O)N[C@@H](CCCC)C(=O)N(C)CC(N)=O)C(C)C)C(=O)O) [Peptide 23] | 1090 nM
14 | Palmitoyl-[d(γGlu)][AEEA][AEEA]GNHWAV[dA][3Pal]L[Nle]-NH2 (SMILES CCCCCCCCCCCCCCCC(=O)N[C@H](CCC(=O)NCCOCCOCC(=O)NCCOCCOCC(=O)NCC(=O)N[C@@H](CC(N)=O)C(=O)N[C@@H](Cc1c[nH]cn1)C(=O)N[C@@H](Cc1c[nH]c2ccccc12)C(=O)N[C@@H](C)C(=O)N[C@H](C(=O)N[C@H](C)C(=O)N[C@@H](Cc1cccnc1)C(=O)N[C@@H](CC(C)C)C(=O)N[C@@H](CCCC)C(N)=O)C(C)C)C(=O)O) [Peptide 17] | 3 nM
15 | Palmitoyl-[d(γGlu)]GNHWAV[Aib]HL[Nle]-NH2 (SMILES CCCCCCCCCCCCCCCC(=O)N[C@H](CCC(=O)NCC(=O)N[C@@H](CC(N)=O)C(=O)N[C@@H](Cc1c[nH]cn1)C(=O)N[C@@H](Cc1c[nH]c2ccccc12)C(=O)N[C@@H](C)C(=O)N[C@H](C(=O)NC(C)(C)C(=O)N[C@@H](Cc1c[nH]cn1)C(=O)N[C@@H](CC(C)C)C(=O)N[C@@H](CCCC)C(N)=O)C(C)C)C(=O)O) [Peptide 21] | 120 nM
16 | {C18 diacid}-[dE][AEEA][AEEA]GNH[Trp(7-Me)]AV[dA]HL[Nle]-NH2 (SMILES CCCC[C@H](NC(=O)[C@H](CC(C)C)NC(=O)[C@H](Cc1c[nH]cn1)NC(=O)[C@@H](C)NC(=O)[C@@H](NC(=O)[C@H](C)NC(=O)[C@H](Cc1c[nH]c2c(C)cccc12)NC(=O)[C@H](Cc1c[nH]cn1)NC(=O)[C@H](CC(N)=O)NC(=O)CNC(=O)COCCOCCNC(=O)COCCOCCNC(=O)[C@@H](CCC(=O)O)NC(=O)CCCCCCCCCCCCCCCCC(=O)O)C(C)C)C(N)=O) [Peptide 46] | 9.9 nM
17 | {C20 diacid}-[γGlu][γGlu][AEEA][AEEA]GDH[Trp(7-Me)]AV[BABA][NMeH]L[Nle]-NH2 [Peptide 278] | 10.8 nM
18 | {C20 diacid}-[γGlu][γGlu][AEEA][AEEA]SEH[Trp(7-Me)]AV[BABA][NMeH]L[Nle]-NH2 [Peptide 277] | 13.1 nM
19 | GNHWAVXHLX (not fully specified; Ac-Gly-Asn-His-Trp-Ala-Val-D-Ala-His-Leu-Nle-H2N(CH2)3NH2-OEG-OEG-(α-Palmitoyl-D-γGlu)) [Peptide 25] | 10000 nM
